Results on 7 molecules are retold here after patent US7041457B2, “Gαq protein variants and their use in the analysis and discovery of agonists and antagonists of chemosensory receptors” (Senomyx, Inc., priority 2000, dated 2006).

Sequences and labels used below:
B1: MGq (HV-HA)-t5: mouse Gαq HV-HA with C-terminal five amino acids of transducin, SEQ ID NO:12 (protein, listed as Mus sp.)
chain: MTLESIMACCLSEEAKEARRINDEIERHVRRDKRDARRELKLLLLGTGESGKSTFIKQMRIIHGSGYSDEDKRGFTKLVYQNIFTAMQAMIRAMDTLKIPYKYEHNKAHAQLVREVDVEKVSAFDVPDYAAIKSLWNDPGIQECYDRRREYQLSDSTKYYLNDLDRVADPSYLPTQQDVLRVRVPTTGIIEYPFDLQSVIFRMVDVGGQRSERRKWIHCFENVTSIMFLVALSEYDQVLVESDNENRMEESKALFRTIITYPWFQNSSVILFLNKKDLLEEKIMYSHLVDYFPEYDGPQRDAQAAREFILKMFVDLNPDSDKIIYSHFTCATDTENIRFVFAAVKDTILQLNLKDCGLF
modifications: HA tag; transducin C-terminal five residues
B2: MGq (HVD-HA)-t5: mouse Gαq HVD-HA with C-terminal five amino acids of transducin, SEQ ID NO:13 (protein, listed as Mus sp.)
chain: MTLESIMACCLSEEAKEARRINDEIERHVRRDKRDARRELKLLLLGTGESGKSTFIKQMRIIHGSDYSDEDKRGFTKLVYQNIFTAMQAMIRAMDTLKIPYKYEHNKAHAQLVREVDVEKVSAFDVPDYAAIKSLWNDPGIQECYDRRREYQLSDSTKYYLNDLDRVADPSYLPTQQDVLRVRVPTTGIIEYPFDLQSVIFRMVDVGGQRSERRKWIHCFENVTSIMFLVALSEYDQVLVESDNENRMEESKALFRTIITYPWFQNSSVILFLNKKDLLEEKIMYSHLVDYFPEYDGPQRDAQAAREFILKMFVDLNPDSDKIIYSHFTCATDTENIRFVFAAVKDTILQLNLKDCGLF
modifications: HA tag; transducin C-terminal five residues
B3: HGq (ΔN): human Gαq with truncation of N-terminal six amino acids, SEQ ID NO:16 (protein, listed as Homo sapiens)
chain: MACCLSEEAKEARRINDEIERQLRRDKRDARRELKLLLLGTGESGKSTFIKQMRIIHGSGYSDEDKRGFTKLVYQNIFTAMQAMIRAMDTLKIPYKYEHNKAHAQLVREVDVEKVSAFENPYVDAIKSLWNDPGIQECYDRRREYQLSDSTKYYLNDLDRVADPAYLPTQQDVLRVRVPTTGIIEYPFDLQSVIFRMVDVGGQRSERRKWIHCFENVTSIMFLVALSEYDQVLVESDNENRMEESKALFRTIITYPWFQNSSVILFLNKKDLLEEKIMYSHLVDYFPEYDGPQRDAQAAREFILKMFVDLNPDSDKIIYSHFTCATDTENIRFVFAAVKDTILQLNLKEYNAV
B4: MGq (ΔN-HVD-HA)-t5: mouse Gαq ΔN-HVD-HA with C-terminal five amino acids replaced by those of transducin, SEQ ID NO:6 (protein, listed as Mus sp.)
chain: MACCLSEEAKEARRINDEIERHVRRDKRDARRELKLLLLGTGESGKSTFIKQMRIIHGSGYSDEDKRGFTKLVYQNIFTAMQAMIRAMDTLKIPYKYEHNKAHAQLVREVDVEKVSAFDVPDYAAIKSLWNDPGIQECYDRRREYQLSDSTKYYLNDLDRVADPSYLPTQQDVLRVRVPTTGIIEYPFDLQSVIFRMVDVGGQRSERRKWIHCFENVTSIMFLVALSEYDQVLVESDNENRMEESKALFRTIITYPWFQNSSVILFLNKKDLLEEKIMYSHLVDYFPEYDGPQRDAQAAREFILKMFVDLNPDSDKIIYSHFTCATDTENIRFVFAAVKDTILQLNLKDCGLF
modifications: HA tag; transducin C-terminal five residues
B5: HGq: human Gαq protein, SEQ ID NO:15 (protein, listed as Homo sapiens)
chain: MTLESIMACCLSEEAKEARRINDEIERQLRRDKRDARRELKLLLLGTGESGKSTFIKQMRIIHGSGYSDEDKRGFTKLVYQNIFTAMQAMIRAMDTLKIPYKYEHNKAHAQLVREVDVEKVSAFENPYVDAIKSLWNDPGIQECYDRRREYQLSDSTKYYLNDLDRVADPAYLPTQQDVLRVRVPTTGIIEYPFDLQSVIFRMVDVGGQRSERRKWIHCFENVTSIMFLVALSEYDQVLVESDNENRMEESKALFRTIITYPWFQNSSVILFLNKKDLLEEKIMYSHLVDYFPEYDGPQRDAQAAREFILKMFVDLNPDSDKINYSHFTCATDTENIRFVFAAVKDTILQLNLKEYNAV
B6: MGq (ΔN-HVD-HA)-t44: mouse Gαq ΔN-HVD-HA with C-terminal 44 amino acids of transducin, SEQ ID NO:7 (protein, listed as Mus sp.)
chain: MACCLSEEAKEARRINDEIERHVRRDKRDARRELKLLLLGTGESGKSTFIKQMRIIHGSGYSDEDKRGFTKLVYQNIFTAMQAMIRAMDTLKIPYKYEHNKAHAQLVREVDVEKVSAFDVPDYAAIKSLWNDPGIQECYDRRREYQLSDSTKYYLNDLDRVADPSYLPTQQDVLRVRVPTTGIIEYPFDLQSVIFRMVDVGGQRSERRKWIHCFENVTSIMFLVALSEYDQVLVESDNENRMEESKALFRTIITYPWFQNSSVILFLNKKDLLEEKIMYSHLVDYFPEYDGPQRDAQAAREFILKMFVDLNPDNMRRDVKEIYSHMTCATDTQNVKFVFDAVTDIIIKENLKDCGLF
modifications: HA tag; transducin C-terminal 44 residues
B7: MGq (ΔN-HVD-HA)-olf5: mouse Gαq ΔN-HVD-HA with C-terminal five amino acids of Gαolf, SEQ ID NO:14 (protein, listed as Mus sp.)
chain: MACCLSEEAKEARRINDEIERHVRRDKRDARRELKLLLLGTGESGKSTFIKQMRIIHGSDYSDEDKRGFTKLVYQNIFTAMQAMIRAMDTLKIPYKYEHNKAHAQLVREVDVEKVSAFDVPDYAAIKSLWNDPGIQECYDRRREYQLSDSTKYYLNDLDRVADPSYLPTQQDVLRVRVPTTGIIEYPFDLQSVIFRMVDVGGQRSERRKWIHCFENVTSIMFLVALSEYDQVLVESDNENRMEESKALFRTIITYPWFQNSSVILFLNKKDLLEEKIMYSHLVDYFPEYDGPQRDAQAAREFILKMFVDLNPDSDKIIYSHFTCATDTENIRFVFAAVKDTILQLNLKQYELL
modifications: HA tag; Gαolf C-terminal five residues

The first test deals with T1, bitter receptor mT2R5 (Mus musculus, UniProt Q9JKT4).
T1 construct: expressed in transfected cells
T1 sequence (Q9JKT4 1-300): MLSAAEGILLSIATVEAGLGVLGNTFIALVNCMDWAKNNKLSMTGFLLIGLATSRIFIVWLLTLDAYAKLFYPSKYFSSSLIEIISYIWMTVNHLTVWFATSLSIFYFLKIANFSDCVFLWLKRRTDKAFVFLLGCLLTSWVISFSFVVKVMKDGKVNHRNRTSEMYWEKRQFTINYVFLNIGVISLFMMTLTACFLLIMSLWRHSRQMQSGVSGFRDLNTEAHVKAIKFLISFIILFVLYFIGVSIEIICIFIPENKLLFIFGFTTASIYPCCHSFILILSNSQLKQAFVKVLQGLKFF
Nature of the test: Functional coupling of Gq variants with bitter taste receptor mT2R5 (mammalian cell-based systems and Xenopus oocytes, calcium imaging). The text has this:
(§1) The present invention addresses the above described problems associated with using Gα15/α16, as well as other problems known in the art relating to the use of weakly promiscuous Gα proteins. […] According to the invention, the functional coupling can be determined, for example, by measuring changes in intracellular IP3 or calcium. In a particular embodiment, the Gq protein variants can be expressed in mammalian cell lines or Xenopus oocytes, and then evaluated using calcium fluorescence imaging and electrophysiological recording.
(§2) It was found by functional analysis using single-cell calcium imaging that activation of multi-family GPCRs evoked increases in cytosolic calcium in the presence of the Gαq variants with the G66D mutation. These GPCRs include Gαs-coupled β-adrenergic receptor, Gαolf-coupled mouse 17 olfactory receptor, Gαi-coupled m2 muscarinic receptor, and gustducin-coupled bitter receptor mT2R5. No significant change in cytosolic calcium could be detected by activation of the above GPCRs in the absence of the Gαq variants. Additional GPCRs can include those disclosed in U.S. patent application Ser. No. 09/510,332 filed Feb. 22, 2000 now abandoned; and U.S. Provisional Application Nos. 60/213,849 filed Jun. 23, 2000; 60/209,840 filed Jun. 6, 2000; 60/195,536 filed Apr. 7, 2000; 60/195,534 filed Apr. 7, 2000; 60/195,532 filed Apr. 7, 2000; which are herein incorporated by references for all purposes in a manner consistent with this disclosure.
A series of Gαq protein variants having the sequences listed in FIG. 3 were constructed and tested in mammalian cell-based systems and in Xenopus oocytes for functional coupling efficiency with bitter receptor mT2R5 and mouse olfactory receptor 17.
In the case of B1, the “Functional Activity With Taste Receptor MT2R5” value was “+”. Still for that read-out and setting: the same measure for B2: “++”; for B3: “−”; for B4: “++”.

Regarding B5, the “Functional Activity With Taste Receptor MT2R5” value is recorded as “−”.

For B6, the “Functional Activity With Taste Receptor MT2R5” value is on record as “++”.

Another test deals with T2, mouse olfactory receptor 17 (Mus musculus, UniProt Q9QWU6).
T2 construct: expressed in transfected cells
T2 sequence (Q9QWU6 1-327): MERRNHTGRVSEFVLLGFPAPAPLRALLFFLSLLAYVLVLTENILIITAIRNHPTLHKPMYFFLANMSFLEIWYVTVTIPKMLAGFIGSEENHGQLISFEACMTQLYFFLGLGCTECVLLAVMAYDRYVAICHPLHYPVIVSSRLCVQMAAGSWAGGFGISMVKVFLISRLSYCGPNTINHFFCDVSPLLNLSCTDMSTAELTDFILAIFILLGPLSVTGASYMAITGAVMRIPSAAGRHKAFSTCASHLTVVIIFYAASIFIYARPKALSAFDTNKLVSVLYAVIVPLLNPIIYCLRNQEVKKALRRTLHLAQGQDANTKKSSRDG
The test is described as follows: Functional coupling of Gq variants with mouse olfactory receptor 17 (mammalian cell-based systems and Xenopus oocytes, calcium imaging). The arrangement: key to the marks not given beside the values.
Source text: as §1
as §2, with “7, 2000; which are herein incorporated by references for all purposes in a manner consistent with this disclosure.” left out
Regarding B7, the “Functional Activity with Olfactory Receptor ml7” value is “++”.
